Test results as given in publication PMC10733448, “An aptamer and Au/Si CCA based SERS sensor for ultra-sensitive detection of Vimentin during EMT in gastric cancer”.

Molecular target: Vimentin (UniProt P08670 2-466)
Assay: SERS strand-displacement sensor (signal decrease on Vimentin addition); competes with hybridized complementary strand S3 (5-FAM); binding buffer, salt, pH and temperature not given in the material; aptamer on Au/Si CCA, complementary strand on AuNCs, 6-MCH blocking
Conditions: label: none on the aptamer; reporter 5-FAM is on the complementary strand S3; before protein addition hybridized over its 3' 18 nt to SH-S3-5-FAM on Au nanocubes

Sequence of Vimentin (P08670 2-466): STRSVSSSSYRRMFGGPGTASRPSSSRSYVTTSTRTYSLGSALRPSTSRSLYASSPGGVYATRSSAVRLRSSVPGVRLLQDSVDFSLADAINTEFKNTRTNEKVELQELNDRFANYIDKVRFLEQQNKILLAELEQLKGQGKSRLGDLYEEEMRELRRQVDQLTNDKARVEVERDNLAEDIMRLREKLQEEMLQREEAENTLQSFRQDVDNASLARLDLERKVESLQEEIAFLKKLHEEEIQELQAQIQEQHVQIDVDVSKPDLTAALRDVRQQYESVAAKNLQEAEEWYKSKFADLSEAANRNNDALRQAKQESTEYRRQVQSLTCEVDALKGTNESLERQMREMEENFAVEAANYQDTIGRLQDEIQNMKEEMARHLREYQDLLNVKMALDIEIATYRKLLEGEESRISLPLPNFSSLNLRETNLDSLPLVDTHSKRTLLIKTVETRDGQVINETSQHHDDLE

Binder: TAGACCCAGCTGGTCCGGAAAATAAGATGTCACGGATCCTC (ssDNA, thiol (SH) printed at 5' end) [Vimentin aptamer]
- binding result: binds
